Our source for the colony formation in soft agar, T47D wild type cells treated with neuregulin (FIG. 13) and colony formation in soft agar, ribozyme transfected T47D cells (T47D/Rz, ErbB-4 down-regulated) values is US6566104.

The target in the assay is endogenous ErbB-4 of T47D human breast cancer cells (human) (UniProt Q15303). The assay is described as follows: cell-based or functional assay.
UniProt Q15303, sequence (Q15303 26-1308, stated change not applied): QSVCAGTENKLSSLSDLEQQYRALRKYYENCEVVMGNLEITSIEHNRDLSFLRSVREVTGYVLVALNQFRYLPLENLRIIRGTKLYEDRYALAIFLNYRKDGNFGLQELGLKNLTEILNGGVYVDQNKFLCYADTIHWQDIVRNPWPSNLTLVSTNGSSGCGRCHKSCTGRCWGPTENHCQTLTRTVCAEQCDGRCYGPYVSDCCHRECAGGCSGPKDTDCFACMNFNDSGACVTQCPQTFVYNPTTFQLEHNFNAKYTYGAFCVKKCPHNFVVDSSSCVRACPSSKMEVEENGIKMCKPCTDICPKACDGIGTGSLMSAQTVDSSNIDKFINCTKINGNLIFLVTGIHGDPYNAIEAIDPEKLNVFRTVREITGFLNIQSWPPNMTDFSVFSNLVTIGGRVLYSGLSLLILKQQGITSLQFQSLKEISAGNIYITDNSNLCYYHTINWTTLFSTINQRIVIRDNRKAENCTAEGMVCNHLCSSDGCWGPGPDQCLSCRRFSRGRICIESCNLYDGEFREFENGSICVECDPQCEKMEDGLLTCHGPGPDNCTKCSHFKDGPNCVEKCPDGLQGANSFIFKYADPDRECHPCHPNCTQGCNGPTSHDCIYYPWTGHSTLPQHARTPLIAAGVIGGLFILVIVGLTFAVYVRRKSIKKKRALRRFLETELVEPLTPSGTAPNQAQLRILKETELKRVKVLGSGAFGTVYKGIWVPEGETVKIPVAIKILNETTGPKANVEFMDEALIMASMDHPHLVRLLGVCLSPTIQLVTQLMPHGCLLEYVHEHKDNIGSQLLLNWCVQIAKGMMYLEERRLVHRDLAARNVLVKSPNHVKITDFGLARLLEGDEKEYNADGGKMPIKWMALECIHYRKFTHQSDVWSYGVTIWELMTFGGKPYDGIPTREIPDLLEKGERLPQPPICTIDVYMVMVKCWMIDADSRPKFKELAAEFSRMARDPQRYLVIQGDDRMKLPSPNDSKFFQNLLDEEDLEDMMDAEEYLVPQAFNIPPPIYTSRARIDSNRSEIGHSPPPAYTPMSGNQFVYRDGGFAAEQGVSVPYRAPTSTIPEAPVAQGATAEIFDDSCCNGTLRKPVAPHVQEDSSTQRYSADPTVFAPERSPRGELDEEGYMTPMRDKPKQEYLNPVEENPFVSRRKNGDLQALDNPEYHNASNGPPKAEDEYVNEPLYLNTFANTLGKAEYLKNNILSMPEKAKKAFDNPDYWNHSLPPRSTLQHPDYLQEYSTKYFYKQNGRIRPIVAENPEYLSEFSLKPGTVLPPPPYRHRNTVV

In turn, “NRG1-α (from UniProt Q02297 177-241) (ligand)” yielded a colony formation in soft agar, T47D wild type cells treated with neuregulin (FIG. 13) of 11 fold and a colony formation in soft agar, ribozyme transfected T47D cells (T47D/Rz, ErbB-4 down-regulated) of 2.5 fold.
